In experiment [1] the target is T1, FcγRIIb extracellular domain with C-terminal His tag (human, UniProt P31994 43-217).
T1 construct: extracellular domain; soluble receptor expressed in FreeStyle293 cells, used as analyte in Biacore; also called FcgRIIb; 2b; not shown: His tag attached to the C terminus
T1 sequence (looked up): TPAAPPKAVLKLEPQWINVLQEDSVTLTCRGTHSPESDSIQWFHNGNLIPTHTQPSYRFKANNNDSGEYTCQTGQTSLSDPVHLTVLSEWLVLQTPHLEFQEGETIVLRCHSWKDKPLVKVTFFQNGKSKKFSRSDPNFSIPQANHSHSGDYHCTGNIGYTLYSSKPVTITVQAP
As to the kind of experiment: SPR (Biacore), antibody captured on antigen peptide chip, FcγR as analyte; relative binding. In general terms: In SPR one partner is held on a chip, and binding of the other changes the refractive index at the surface.

Experiment [2] has as its target T2, FcγRIa extracellular domain with C-terminal His tag (human, UniProt P12314 16-292).
T2 construct: extracellular domain; soluble receptor expressed in FreeStyle293 cells, used as analyte in Biacore; also called FcgRI; 1a; not shown: His tag attached to the C terminus
The description is as above.

T2 sequence (P12314 16-292): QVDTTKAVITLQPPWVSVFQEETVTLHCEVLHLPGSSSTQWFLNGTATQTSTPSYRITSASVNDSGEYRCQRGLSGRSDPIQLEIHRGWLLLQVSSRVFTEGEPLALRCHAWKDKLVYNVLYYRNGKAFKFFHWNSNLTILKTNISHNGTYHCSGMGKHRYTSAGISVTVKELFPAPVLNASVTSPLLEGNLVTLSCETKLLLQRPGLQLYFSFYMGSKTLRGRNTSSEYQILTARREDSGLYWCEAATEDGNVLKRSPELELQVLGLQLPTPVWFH

B1: GpH7-A5/GpH7-B3 variant A330_04F/GpL16-k0 (antibody, human IgG1, kappa)
heavy 1: not shown
heavy 2: not shown
light: DIVMTQSPLSLPVTPGEPASISCQASESLVHSNRNTYLHWYLQKPGQSPQLLIYKVSNRFSGVPDRFSGSGSGTDFTLKISRVEAEDVGVYYCSQNTHVPPTFGQGTKVEIERTVAAPSVFIFPPSDEQLKSGTASVVCLLNNFYPREAKVQWKVDNALQSGNSQESVTEQDSKDSTYSLSSTLTLSKADYEKHKVYACEVTHQGLSSPVTKSFNRGEC
notes: heterodimerized anti-glypican-3 IgG1; alteration in the GpH7-B3 chain only; also called He Ab
For the molecule B1, the He/Con_2b in experiment [1] is 92.8 % of control GpH7-A5/GpH7-B3/GpL16-k0 (=100). Moreover, the He/Con_1a in experiment [2] is 106 % of control GpH7-A5/GpH7-B3/GpL16-k0 (=100).

B2: GpH7-A5/GpH7-B3 variant P271_07I/GpL16-k0 (antibody, human IgG1, kappa)
heavy 1: not shown
heavy 2: not shown
light: B1 light
notes: as for B1
On to B2, for which the He/Con_2b in experiment [1] is 76.8 % of control GpH7-A5/GpH7-B3/GpL16-k0 (=100). Moreover, the He/Con_1a in experiment [2] is 102 % of control GpH7-A5/GpH7-B3/GpL16-k0 (=100).

B3: GpH7-A5/GpH7-B3 variant A330_09D/GpL16-k0 (antibody, human IgG1, kappa)
heavy 1: not shown
heavy 2: not shown
light: B1 light
notes: as for B1
Turning to B3, in experiment [1], the He/Con_2b was 55.6 % of control GpH7-A5/GpH7-B3/GpL16-k0 (=100). Further, the He/Con_1a in experiment [2] is 109 % of control GpH7-A5/GpH7-B3/GpL16-k0 (=100).

B4: GpH7-A5/GpH7-B3 variant A330_16H/GpL16-k0 (antibody, human IgG1, kappa)
heavy 1: not shown
heavy 2: not shown
light: B1 light
notes: as for B1
With B4, in experiment [1], the He/Con_2b was 87.6 % of control GpH7-A5/GpH7-B3/GpL16-k0 (=100). In addition, the He/Con_1a in experiment [2] is 106 % of control GpH7-A5/GpH7-B3/GpL16-k0 (=100).

B5: GpH7-A5/GpH7-B3 variant A330_18N/GpL16-k0 (antibody, human IgG1, kappa)
heavy 1: not shown
heavy 2: not shown
light: B1 light
notes: as for B1
For B5, the He/Con_2b in experiment [1] is 63.7 % of control GpH7-A5/GpH7-B3/GpL16-k0 (=100). For the same molecule, in experiment [2], the He/Con_1a was 106 % of control GpH7-A5/GpH7-B3/GpL16-k0 (=100).

B6: GpH7-A5/GpH7-B3 variant D270_03V/GpL16-k0 (antibody, human IgG1, kappa)
heavy 1: not shown
heavy 2: not shown
light: B1 light
notes: as for B1
B6: the He/Con_2b in experiment [1] was 39.5 % of control GpH7-A5/GpH7-B3/GpL16-k0 (=100). Also, the He/Con_1a in experiment [2] is 77.9 % of control GpH7-A5/GpH7-B3/GpL16-k0 (=100).

B7: GpH7-A5/GpH7-B3 variant A330_15Y/GpL16-k0 (antibody, human IgG1, kappa)
heavy 1: not shown
heavy 2: not shown
light: B1 light
notes: as for B1
As to B7, the He/Con_2b in experiment [1] was 95 % of control GpH7-A5/GpH7-B3/GpL16-k0 (=100). For the same molecule, in experiment [2], the He/Con_1a is 105 % of control GpH7-A5/GpH7-B3/GpL16-k0 (=100).

B8: GpH7-A5/GpH7-B3 variant E333_06M/GpL16-k0 (antibody, human IgG1, kappa)
heavy 1: not shown
heavy 2: not shown
light: B1 light
notes: as for B1
Consider B8, for which the He/Con_2b in experiment [1] is 85.4 % of control GpH7-A5/GpH7-B3/GpL16-k0 (=100). Moreover, the He/Con_1a in experiment [2] is 102 % of control GpH7-A5/GpH7-B3/GpL16-k0 (=100).

B9: GpH7-A5/GpH7-B3 variant E333_03V/GpL16-k0 (antibody, human IgG1, kappa)
heavy 1: not shown
heavy 2: not shown
light: B1 light
notes: as for B1
For B9, in experiment [1], the He/Con_2b is 93.2 % of control GpH7-A5/GpH7-B3/GpL16-k0 (=100). Besides, in experiment [2], the He/Con_1a is 105 % of control GpH7-A5/GpH7-B3/GpL16-k0 (=100).

B10: GpH7-A5/GpH7-B3 variant D270_07I/GpL16-k0 (antibody, human IgG1, kappa)
heavy 1: not shown
heavy 2: not shown
light: B1 light
notes: as for B1
Turning to B10, the He/Con_2b in experiment [1] is 41.5 % of control GpH7-A5/GpH7-B3/GpL16-k0 (=100). Besides, the He/Con_1a in experiment [2] is 74.6 % of control GpH7-A5/GpH7-B3/GpL16-k0 (=100).

B11: GpH7-A5/GpH7-B3 variant E333_01G/GpL16-k0 (antibody, human IgG1, kappa)
heavy 1: not shown
heavy 2: not shown
light: B1 light
notes: as for B1
Take B11: the He/Con_2b in experiment [1] is 81.4 % of control GpH7-A5/GpH7-B3/GpL16-k0 (=100). Also, the He/Con_1a in experiment [2] is 103 % of control GpH7-A5/GpH7-B3/GpL16-k0 (=100).

B12: GpH7-A5/GpH7-B3 variant I332_12R/GpL16-k0 (antibody, human IgG1, kappa)
heavy 1: not shown
heavy 2: not shown
light: B1 light
notes: as for B1
As for B12, the He/Con_2b in experiment [1] is 48.9 % of control GpH7-A5/GpH7-B3/GpL16-k0 (=100). For the same molecule, the He/Con_1a in experiment [2] was 100 % of control GpH7-A5/GpH7-B3/GpL16-k0 (=100).

B13: GpH7-A5/GpH7-B3 variant D270_12R/GpL16-k0 (antibody, human IgG1, kappa)
heavy 1: not shown
heavy 2: not shown
light: B1 light
notes: as for B1
B13: the He/Con_2b in experiment [1] was 18.3 % of control GpH7-A5/GpH7-B3/GpL16-k0 (=100). The He/Con_1a in experiment [2] was 66.3 % of control GpH7-A5/GpH7-B3/GpL16-k0 (=100).

B14: GpH7-A5/GpH7-B3 variant D270_11K/GpL16-k0 (antibody, human IgG1, kappa)
heavy 1: not shown
heavy 2: not shown
light: B1 light
notes: as for B1
Regarding B14, the He/Con_2b in experiment [1] is 20.3 % of control GpH7-A5/GpH7-B3/GpL16-k0 (=100). Besides, the He/Con_1a in experiment [2] is 58.4 % of control GpH7-A5/GpH7-B3/GpL16-k0 (=100).

B15: GpH7-A5/GpH7-B3 variant A330_20W/GpL16-k0 (antibody, human IgG1, kappa)
heavy 1: not shown
heavy 2: not shown
light: B1 light
notes: as for B1
As for B15, the He/Con_2b in experiment [1] is 76.1 % of control GpH7-A5/GpH7-B3/GpL16-k0 (=100). Also, the He/Con_1a in experiment [2] was 108 % of control GpH7-A5/GpH7-B3/GpL16-k0 (=100).

B16: GpH7-A5/GpH7-B3 variant E333_05P/GpL16-k0 (antibody, human IgG1, kappa)
heavy 1: not shown
heavy 2: not shown
light: B1 light
notes: as for B1
Turning to B16, the He/Con_2b in experiment [1] was 97.7 % of control GpH7-A5/GpH7-B3/GpL16-k0 (=100). In experiment [2], the He/Con_1a is 102 % of control GpH7-A5/GpH7-B3/GpL16-k0 (=100).

B17: GpH7-A5/GpH7-B3 variant A330_08L/GpL16-k0 (antibody, human IgG1, kappa)
heavy 1: not shown
heavy 2: not shown
light: B1 light
notes: as for B1
In the case of B17, in experiment [1], the He/Con_2b was 70.5 % of control GpH7-A5/GpH7-B3/GpL16-k0 (=100). Moreover, the He/Con_1a in experiment [2] is 107 % of control GpH7-A5/GpH7-B3/GpL16-k0 (=100).

B18: GpH7-A5/GpH7-B3 variant A330_19Q/GpL16-k0 (antibody, human IgG1, kappa)
heavy 1: not shown
heavy 2: not shown
light: B1 light
notes: as for B1
Consider B18, for which the He/Con_2b in experiment [1] was 90.8 % of control GpH7-A5/GpH7-B3/GpL16-k0 (=100). Besides, the He/Con_1a in experiment [2] was 105 % of control GpH7-A5/GpH7-B3/GpL16-k0 (=100).

B19: GpH7-A5/GpH7-B3 variant D270_20W/GpL16-k0 (antibody, human IgG1, kappa)
heavy 1: not shown
heavy 2: not shown
light: B1 light
notes: as for B1
For B19, in experiment [1], the He/Con_2b is 34.7 % of control GpH7-A5/GpH7-B3/GpL16-k0 (=100). Also, the He/Con_1a in experiment [2] was 68 % of control GpH7-A5/GpH7-B3/GpL16-k0 (=100).

B20: GpH7-A5/GpH7-B3 variant A330_14T/GpL16-k0 (antibody, human IgG1, kappa)
heavy 1: not shown
heavy 2: not shown
light: B1 light
notes: as for B1
On to B20, for which, in experiment [1], the He/Con_2b is 77.9 % of control GpH7-A5/GpH7-B3/GpL16-k0 (=100). Also, the He/Con_1a in experiment [2] was 105 % of control GpH7-A5/GpH7-B3/GpL16-k0 (=100).

B21: GpH7-A5/GpH7-B3 variant A330_10E/GpL16-k0 (antibody, human IgG1, kappa)
heavy 1: not shown
heavy 2: not shown
light: B1 light
notes: as for B1
Regarding B21, the He/Con_2b in experiment [1] is 70.1 % of control GpH7-A5/GpH7-B3/GpL16-k0 (=100). In addition, the He/Con_1a in experiment [2] is 107 % of control GpH7-A5/GpH7-B3/GpL16-k0 (=100).

Source of the values: patent US20180155451A1 (published 2018).
